Source: US20030105000A1 (UNIVERSITY OF VERMONT AND STATE AGRICULTURAL COLLEGE, published 2003)
Positions of bridges follow the written chain, without caps; N, C: chain ends. No end group written: not given here.

T1: Grb14-SH2-GST (UniProt Q14449 423-540)
T1 construct: domain: SH2 domain; also called SH2 domain of Grb14; not shown: glutathione-S-transferase (GST) fusion partner
T1 sequence (looked up): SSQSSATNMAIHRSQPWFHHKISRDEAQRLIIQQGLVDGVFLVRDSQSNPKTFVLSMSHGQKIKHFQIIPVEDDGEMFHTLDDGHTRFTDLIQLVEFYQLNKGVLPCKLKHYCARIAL


Tests used:
Grb14-SH2-GST = biological target: T1, Grb14-SH2-GST; experiment: phage ELISA (FIG. 4)
BSA = biological target: T2, BSA (UniProt P02769 25-607); experiment: phage ELISA on coated protein (FIG. 1)
T2 construct: also called bovine serum albumin
T2 sequence (P02769 25-607 limits assumed): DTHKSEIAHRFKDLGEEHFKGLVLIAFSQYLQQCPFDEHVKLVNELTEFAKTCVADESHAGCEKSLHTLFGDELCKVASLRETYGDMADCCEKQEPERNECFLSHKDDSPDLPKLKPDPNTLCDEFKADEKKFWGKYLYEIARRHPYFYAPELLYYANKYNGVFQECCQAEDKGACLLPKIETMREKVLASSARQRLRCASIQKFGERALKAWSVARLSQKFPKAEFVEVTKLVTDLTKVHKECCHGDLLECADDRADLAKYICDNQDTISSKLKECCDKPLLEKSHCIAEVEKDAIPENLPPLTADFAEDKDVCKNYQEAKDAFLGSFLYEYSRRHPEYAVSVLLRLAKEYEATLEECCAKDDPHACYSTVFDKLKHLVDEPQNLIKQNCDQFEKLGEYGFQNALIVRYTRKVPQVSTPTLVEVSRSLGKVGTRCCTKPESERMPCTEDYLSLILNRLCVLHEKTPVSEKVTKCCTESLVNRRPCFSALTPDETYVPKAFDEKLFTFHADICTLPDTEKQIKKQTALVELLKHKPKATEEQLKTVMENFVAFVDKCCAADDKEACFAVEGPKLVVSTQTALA
Text: (§1) The overall methodology of an ELISA is well established. […] Non-specific binding was blocked by casein. Binding of phage was detected using an anti-phage antibody conjugated to horseradish peroxidase.

GST alone = biological target: T3, GST alone (UniProt P08515 1-218 = GST); experiment: phage ELISA on coated protein (FIG. 1)
T3 construct: Control protein coated on the ELISA plate; also called fusion protein (GST)
T3 sequence (P08515 whole entry, the tested form may be a part): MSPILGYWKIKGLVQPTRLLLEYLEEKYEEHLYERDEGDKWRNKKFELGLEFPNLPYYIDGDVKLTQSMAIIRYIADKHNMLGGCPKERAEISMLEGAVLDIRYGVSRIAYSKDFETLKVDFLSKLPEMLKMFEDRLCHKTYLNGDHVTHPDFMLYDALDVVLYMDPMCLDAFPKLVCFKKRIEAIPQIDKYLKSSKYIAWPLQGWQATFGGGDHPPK
Text: as §1

Grb2-GST [1] = biological target: T4, Grb2-GST (UniProt P62993 1-217); experiment: phage ELISA on coated protein (FIG. 1)
T4 construct: also called full length Grb2; not shown: glutathione-S-transferase (GST) fusion partner
T4 sequence (P62993 whole entry, the tested form may be a part): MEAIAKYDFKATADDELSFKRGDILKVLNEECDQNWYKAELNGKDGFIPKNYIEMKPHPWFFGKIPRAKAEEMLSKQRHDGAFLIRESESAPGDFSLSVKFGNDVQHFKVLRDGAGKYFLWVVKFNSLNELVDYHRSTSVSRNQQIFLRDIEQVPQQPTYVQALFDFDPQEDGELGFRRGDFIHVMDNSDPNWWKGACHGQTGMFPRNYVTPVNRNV
Text: as §1

[2] = biological target: T5, Grb7-SH2 domain-GST (SH2 domain of human Grb7 containing a GST fusion tag) (human, UniProt Q14451 415-532); experiment: phage ELISA on coated Grb7-SH2 domain-GST, anti-phage-HRP (FIG. 1)
T5 construct: domain: SH2 domain; Purified from E. coli; also called Grb7-SH2-GST; not shown: glutathione-S-transferase (GST) fusion tag
T5 sequence (Q14451 415-532): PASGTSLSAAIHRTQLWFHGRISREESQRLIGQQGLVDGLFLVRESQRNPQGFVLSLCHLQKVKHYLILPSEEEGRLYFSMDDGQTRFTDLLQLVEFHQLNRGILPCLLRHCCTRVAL
Text: as §1

Grb2-GST [3] = biological target: T4, Grb2-GST; experiment: phage ELISA (FIG. 4)
[4] = biological target: T5, Grb7-SH2 domain-GST (SH2 domain of …); experiment: phage ELISA (legend of FIG. 1)
Text: as §1

[5] = biological target: T5, Grb7-SH2 domain-GST (SH2 domain of …); experiment: assay not described (sentence of Example 3)
[6] = biological target: T5, Grb7-SH2 domain-GST (SH2 domain of …); experiment: competition ELISA on Grb7-SH2-GST; free peptide 1, 10, 100 uM; competitor G7-18 peptide-phage (FIG. 5A)
Text: (§2) Unbound phage were washed away with Tween-TBS buffer and bound phage were detected with anti-M13-horseradish peroxidase (Amersham-Pharmacia Biotech) and ABTS substrate (Calbiochem). […] Plates were read at OD₄₀₅.

Grb2-GST [7] = biological target: T4, Grb2-GST; experiment: competition ELISA against Grb2-binding peptide-phage (data not shown)
[8] = biological target: T5, Grb7-SH2 domain-GST (SH2 domain of …); experiment: competition ELISA on Grb7-SH2-GST; competitor G7-8NA peptide-phage (FIG. 5B)
Text: as §2

[9] = biological target: T5, Grb7-SH2 domain-GST (SH2 domain of …); experiment: competition ELISA on Grb7-SH2-GST; competitor G7-18 peptide-phage (FIG. 5A)
Text: as §2

Binder | binding result (Grb14-SH2-GST) | binding result (BSA) | binding result (GST alone) | binding result (Grb2-GST [1]) | binding result [2] | binding result [5] | other results
NVSECIYIHYDNWSLCGVEV (peptide, not shown: large carriers, disulfide 5-16; also: displayed on phage gene III protein, Tested as a phage clone displaying the peptide on the gene III protein) [G7BP-3 peptide-phage clone] | no binding | no binding | no binding | no binding | binds | – | –
GVSNCVFWGYANDWLCSDYS (peptide, not shown: large carriers, disulfide 5-16; also: displayed on phage gene III protein, Tested as a phage clone displaying the peptide on the gene III protein; also called G7-8 peptide-phage) [G7BP-4 peptide-phage clone] | no binding | no binding | no binding | no binding | binds | – | –
RSTLCWFEGYDNTFPCKYFR (peptide, not shown: large carriers, disulfide 5-16; also: displayed on phage gene III protein, Tested as a phage clone; also called G7-18 peptide-phage) [G7BP-5 peptide-phage clone] | no binding | no binding | no binding | no binding | binds | – | –
FCAVCNEELYENCGGCSVGK (peptide, not shown: large carriers, disulfide 5-16; cysteine pairing not given here; also: displayed on phage gene III protein, Tested as a phage clone displaying the peptide on the gene III protein) [G7BP-6 peptide-phage clone] | no binding | no binding | no binding | no binding | binds | – | –
RTSPCGYIGYDNIFECTYLG (peptide, not shown: large carriers, disulfide 5-16; also: displayed on phage gene III protein, Tested as a phage clone displaying the peptide on the gene III protein) [G7BP-7 peptide-phage clone] | no binding | no binding | no binding | no binding | binds | – | –
KLFWCTYEDYANEWPCPGYS (peptide, not shown: large carriers, disulfide 5-16; also: displayed on phage gene III protein, Tested as a phage clone displaying the peptide on the gene III protein) [G7BP-2 peptide-phage clone] | no binding | no binding | no binding | – | – | – | binding result (Grb2-GST [3]): no binding; binding result [4]: binds
CKYLYYDNDYLC (disulfide 1-12 (inferred)) [G7BP-1NA] | – | – | – | – | – | binds | –
CIYIHYDNWSLC (disulfide 1-12 (inferred)) [G7BP-3NA] | – | – | – | – | – | binds | –
CWFEGYDNTFPC (also called G7-18NA) [G7BP-5NA] | – | – | – | – | – | binds | –
CNEELYENCGGC (disulfide (positions not given here); not fully specified) [G7BP-6NA] | – | – | – | – | – | binds | –
CGYIGYDNIFEC (disulfide 1-12 (inferred)) [G7BP-7NA] | – | – | – | – | – | binds | –
RSTLCWFEGYDNTFPCKYFR (disulfide 5-16 (inferred), Free synthetic peptide, not on phage; also called G7BP-5; G7-18 (disulfide)) [G7-18 free synthetic peptide] | – | – | – | – | – | – | binding result [6]: binds; binding result (Grb2-GST [7]): no binding
GVSNCVFWGYANDWLCSDYS (disulfide 5-16 (inferred), Free synthetic peptide, not on phage; also called G7BP-4) [G7-8 free synthetic peptide] | – | – | – | – | – | – | binding result [6]: binds; binding result (Grb2-GST [7]): no binding
VFWGYANDWLC (non-phosphorylated; thioether bond between the ends of the peptide (N-terminal cysteine replaced by another functional group), Lacks the arms; also called G7BP-4NATE) [G7-8NATE free synthetic peptide] | – | – | – | – | – | – | binding result [8]: binds
WFEGYDNTFPC (non-phosphorylated; thioether bond between the ends of the peptide (N-terminal cysteine replaced by another functional group), Lacks the 4-residue arms on both sides; cyclised by a thioether; also called G7BP-5NATE; G7-18NATE (thioether)) [G7-18NATE free synthetic peptide] | – | – | – | – | – | – | binding result [9]: binds
